Assay results reported in patent US20190381171A1, “CO-USE OF ANTI-BCMA ANTIBODY AND ANTIBODY-COUPLED T CELL RECEPTOR (ACTR) IN CANCER THERAPY AND B CELL DISORDERS” (UNUM THERAPEUTICS INC., priority 2017, published 2019).

System: NCI-H929 target cells
Assay: ACTR T-cell cytokine release (IFNγ, IL2; Meso Scale Discovery) in co-culture with target cells and antibody
Type: cell-based, human
Conditions: T-cells expressing ACTR variant SEQ ID NO: 1, E:T 4:1, 24 hours, increasing antibody concentration (FIG. 4 chimeric, FIG. 9 humanized)
Procedure: T-cells expressing ACTR variant SEQ ID NO: 1 (effector; E) and target cells (target; T) were incubated at a 4:1, effector-to-target ratio (120,000 T cells; 30,000 target cells) with increasing concentrations of various chimeric antibodies in a 200-μL reaction volume in RPMI 1640 media supplemented with 10% fetal bovine serum. In FIG. 4, the chimeric antibodies included fucosylated and afucosylated (SEA) versions of the SG16.17 and SG16.45 anti-BCMA antibodies at a concentration range of 100-0.0005 μg/mL. In FIG. 9, humanized afucosylated (SEA) SG16.17 antibody was used at a concentration range of 3.8-0.002 μg/mL. […] Supernatants were subsequently analyzed for IFNγ and IL2 using the Meso Scale Discovery V-Plex Human IFN-γ Kit (K151QOD-4) and V-Plex Human IL-2 Kit (K151QQD-4). Briefly, the Proinflammatory Calibrator Blend, Detection Antibody Solution, and Read Buffer were prepared according to manufacturer protocols. […] Read Buffer (150 μL) was added to the plate and the plates were run on the MSD Quickplex SQ 120.
For these experiments, BCMA+ HER2− NCI− H929 and BCMA− HER2+ SKBR3 target cells were used. […] Supernatants were subsequently analyzed for IFNγ using the Meso Scale Discovery V-Plex Human IFN-γ Kit (K151QOD-4). Briefly, the Proinflammatory Calibrator Blend, Detection Antibody Solution, and Read Buffer were prepared according to manufacturer protocols. […]

B1: cSG16.45SEA: afucosylated (SEA) version of the chimeric SG16.45 anti-BCMA antibody (antibody, V domains shown)
VH: EVQLVESGGGLVQPGRSLKLSCVASGFTFNDHWMTWIRQAPGRGLEWISSITNTGGATYYLDSVKGRFTISRDNAKSTLYLQMNSLRSEDTATYYCTSPGLYFDYWGQGVMVTVSS
VL: EIVLTQSPTTTAASPGEKVTITCLATSSVSVMYWYQHKSGASPKLLIYSTSSLASGVPDRFSGSGSGTSYSLTINTMEAEDAATYYCHQWSSDPPTFGSGTKLEIKR
ACTR T-cell IFNγ and IL2 release: increased potency in cytokine release when compared to their fucosylated counterparts
